Data from patent US20140249045A1 (MEDICINAL BIOCONVERGENCE RESEARCH CENTER, published 2014).
Each block holds one binder with its values, some of them ahead of it.

B4: HA-tagged RagD (enzyme, UniProt Q9NQL2 1-400, looked up)
chain: MSQVLGKPQPQDEDDAEEEEEEDELVGLADYGDGPDSSDADPDSGTEEGVLDFSDPFSTEVKPRILLMGLRRSGKSSIQKVVFHKMSPNETLFLESTNKICREDVSNSSFVNFQIWDFPGQIDFFDPTFDYEMIFRGTGALIFVIDSQDDYMEALARLHLTVTRAYKVNTDINFEVFIHKVDGLSDDHKIETQRDIHQRANDDLADAGLEKIHLSFYLTSIYDHSIFEAFSKVVQKLIPQLPTLENLLNIFISNSGIEKAFLFDVVSKIYIATDSTPVDMQTYELCCDMIDVVIDISCIYGLKEDGAGTPYDKESTAIIKLNNTTVLYLKEVTKFLALVCFVREESFERKGLIDYNFHCFRKAIHEVFEVRMKVVKSRKVQNRLQKKKRATPNGTPRVLL
notes: Expressed in 293T cells, used as cell lysate; also called HA-RagD; not shown: HA tag

How the values were obtained:
[1] = biological target: B4; assay: in vitro GST pull-down of HA-RagD lysate, anti-HA blot (FIG. 3h)
Method: Binding assay was conducted in 25 mM Tris-HCl buffer (pH7.4) containing 10 mM NaCl, 1 mM MgCl₂, 1 mM EDTA, 0.5 mM EGTA, and 0.5% Triton X-100.

[2] = biological target: T1, endogenous LRS of 293T cells (Homo sapiens (Human), UniProt Q9P2J5 1-1176); assay: immunoprecipitation of 293T lysates with anti-Raptor antibody, anti-LRS and anti-RagD blots (FIG. 4a)
T1 construct: Endogenous protein in HEK293T cell lysates, detected with anti-LRS antibody
Method: 293T cells were starved for amino acids for 1 hour and re-stimulated with amino acids for 5 min.

[3] = biological target: T2, His-LRS-(759-1176) (Homo sapiens (Human), UniProt Q9P2J5 759-1176); assay: ELISA competition: His-LRS-(759-1176) added to GST-RagD on plate-coated His-LRS-(1-1176) (FIG. 13b)
T2 construct: not shown: His tag from pET16a vector
T2 sequence: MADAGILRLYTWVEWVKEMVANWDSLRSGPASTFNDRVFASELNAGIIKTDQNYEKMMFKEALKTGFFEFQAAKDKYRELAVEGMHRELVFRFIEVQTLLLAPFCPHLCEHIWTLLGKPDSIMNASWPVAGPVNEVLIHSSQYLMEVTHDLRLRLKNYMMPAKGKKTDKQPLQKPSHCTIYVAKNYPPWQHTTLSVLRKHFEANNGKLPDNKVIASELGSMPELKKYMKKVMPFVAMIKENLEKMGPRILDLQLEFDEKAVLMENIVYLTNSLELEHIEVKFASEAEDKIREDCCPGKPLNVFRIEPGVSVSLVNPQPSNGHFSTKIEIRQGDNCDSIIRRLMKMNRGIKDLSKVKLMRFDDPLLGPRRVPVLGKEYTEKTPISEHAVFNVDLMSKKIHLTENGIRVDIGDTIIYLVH

[4] = biological target: T3, His-LRS-(1-1176) (Homo sapiens (Human), UniProt Q9P2J5 1-1176); assay: ELISA: plate coated with LRS-(1-1176) (500 ng/ml), GST-RagD detected with anti-GST antibody (FIG. 13a)
T3 construct: Expressed in E. coli BL21(DE3), purified on Ni-chelating agarose, coated on the ELISA plate; not shown: His tag from pET16a vector

[5] = biological target: T4, myc-tagged glutamyl-prolyl-tRNA synthetase (EPRS) (UniProt P07814 1-1512); assay: co-immunoprecipitation with anti-HA antibody, anti-myc blot (FIG. 3c)
T4 construct: also called myc-tagged EPRS; not shown: myc tag
T4 sequence (P07814 whole entry): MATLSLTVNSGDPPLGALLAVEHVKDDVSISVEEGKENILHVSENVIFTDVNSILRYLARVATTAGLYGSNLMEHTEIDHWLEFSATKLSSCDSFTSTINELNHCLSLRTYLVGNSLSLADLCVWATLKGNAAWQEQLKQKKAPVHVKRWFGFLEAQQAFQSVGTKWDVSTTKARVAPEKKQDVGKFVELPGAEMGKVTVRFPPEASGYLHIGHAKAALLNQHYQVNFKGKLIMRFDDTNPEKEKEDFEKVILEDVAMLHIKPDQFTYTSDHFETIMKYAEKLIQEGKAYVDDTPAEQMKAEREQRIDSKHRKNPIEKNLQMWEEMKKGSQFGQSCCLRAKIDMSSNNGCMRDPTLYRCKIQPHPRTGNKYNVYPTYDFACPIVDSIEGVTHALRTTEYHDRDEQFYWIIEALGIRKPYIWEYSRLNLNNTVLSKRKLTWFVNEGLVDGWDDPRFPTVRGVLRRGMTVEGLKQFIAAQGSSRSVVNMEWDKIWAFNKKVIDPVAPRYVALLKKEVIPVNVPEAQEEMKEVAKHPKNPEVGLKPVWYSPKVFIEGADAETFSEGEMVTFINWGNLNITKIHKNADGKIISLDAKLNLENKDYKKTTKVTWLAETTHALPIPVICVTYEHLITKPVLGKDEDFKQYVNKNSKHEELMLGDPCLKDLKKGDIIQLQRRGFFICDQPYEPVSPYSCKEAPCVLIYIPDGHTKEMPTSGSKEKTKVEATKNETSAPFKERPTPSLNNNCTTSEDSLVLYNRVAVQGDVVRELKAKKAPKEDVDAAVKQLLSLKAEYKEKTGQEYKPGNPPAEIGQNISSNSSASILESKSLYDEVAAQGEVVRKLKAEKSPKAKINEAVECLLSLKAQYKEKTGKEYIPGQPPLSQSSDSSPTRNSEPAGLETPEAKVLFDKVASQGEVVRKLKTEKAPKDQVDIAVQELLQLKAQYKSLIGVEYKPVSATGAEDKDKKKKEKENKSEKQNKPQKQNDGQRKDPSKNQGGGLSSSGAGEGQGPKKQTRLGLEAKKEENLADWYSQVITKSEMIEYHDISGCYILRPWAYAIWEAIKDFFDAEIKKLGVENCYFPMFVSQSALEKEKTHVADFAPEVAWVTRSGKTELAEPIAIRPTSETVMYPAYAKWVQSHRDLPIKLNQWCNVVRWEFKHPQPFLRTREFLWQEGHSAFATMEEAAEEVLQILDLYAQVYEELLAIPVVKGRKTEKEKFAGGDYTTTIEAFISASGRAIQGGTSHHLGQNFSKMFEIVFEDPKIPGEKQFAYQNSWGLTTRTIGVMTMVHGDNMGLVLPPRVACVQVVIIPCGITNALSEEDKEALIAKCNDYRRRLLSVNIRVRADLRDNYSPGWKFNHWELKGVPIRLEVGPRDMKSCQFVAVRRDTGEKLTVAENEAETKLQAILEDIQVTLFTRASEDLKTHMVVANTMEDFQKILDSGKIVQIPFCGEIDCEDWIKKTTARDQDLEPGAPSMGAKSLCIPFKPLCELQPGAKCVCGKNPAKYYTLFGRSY
Method: (§1) The co-precipitated myc-tagged protein was determined by immunoblotting with anti-myc antibodies.

[6] = biological target: T5, myc-tagged methionyl-tRNA synthetase (MRS) (UniProt P56192 1-900); assay: as above
T5 construct: also called myc-tagged MRS; not shown: myc tag
T5 sequence (looked up): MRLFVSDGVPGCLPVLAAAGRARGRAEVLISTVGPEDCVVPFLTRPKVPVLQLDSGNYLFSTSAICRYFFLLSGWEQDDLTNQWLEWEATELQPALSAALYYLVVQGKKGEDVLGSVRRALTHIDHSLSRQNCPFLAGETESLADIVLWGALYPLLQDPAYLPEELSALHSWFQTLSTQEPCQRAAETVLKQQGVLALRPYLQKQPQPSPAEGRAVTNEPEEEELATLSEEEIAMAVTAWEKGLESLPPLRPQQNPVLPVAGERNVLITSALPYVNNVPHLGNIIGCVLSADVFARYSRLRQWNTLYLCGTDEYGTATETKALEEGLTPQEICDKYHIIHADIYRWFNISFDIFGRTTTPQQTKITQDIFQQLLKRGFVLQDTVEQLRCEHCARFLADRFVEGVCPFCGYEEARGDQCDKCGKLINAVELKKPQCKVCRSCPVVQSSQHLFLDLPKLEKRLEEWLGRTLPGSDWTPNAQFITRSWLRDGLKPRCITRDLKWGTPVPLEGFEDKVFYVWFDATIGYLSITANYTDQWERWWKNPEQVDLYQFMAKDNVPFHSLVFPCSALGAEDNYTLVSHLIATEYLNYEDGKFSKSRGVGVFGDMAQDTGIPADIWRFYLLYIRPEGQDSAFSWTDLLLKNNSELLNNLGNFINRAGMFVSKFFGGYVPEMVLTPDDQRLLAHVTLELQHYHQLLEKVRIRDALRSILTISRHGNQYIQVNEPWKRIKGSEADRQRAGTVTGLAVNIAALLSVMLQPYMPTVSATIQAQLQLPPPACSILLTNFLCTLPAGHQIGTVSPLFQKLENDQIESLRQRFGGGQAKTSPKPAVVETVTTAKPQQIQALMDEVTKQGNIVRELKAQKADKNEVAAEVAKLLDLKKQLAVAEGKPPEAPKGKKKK
Method: as §1

[7] = biological target: T6, myc-tagged isoleucyl-tRNA synthetase (IRS) (UniProt P41252 1-1262); assay: as above
T6 construct: also called myc-tagged IRS; not shown: myc tag
T6 sequence (looked up): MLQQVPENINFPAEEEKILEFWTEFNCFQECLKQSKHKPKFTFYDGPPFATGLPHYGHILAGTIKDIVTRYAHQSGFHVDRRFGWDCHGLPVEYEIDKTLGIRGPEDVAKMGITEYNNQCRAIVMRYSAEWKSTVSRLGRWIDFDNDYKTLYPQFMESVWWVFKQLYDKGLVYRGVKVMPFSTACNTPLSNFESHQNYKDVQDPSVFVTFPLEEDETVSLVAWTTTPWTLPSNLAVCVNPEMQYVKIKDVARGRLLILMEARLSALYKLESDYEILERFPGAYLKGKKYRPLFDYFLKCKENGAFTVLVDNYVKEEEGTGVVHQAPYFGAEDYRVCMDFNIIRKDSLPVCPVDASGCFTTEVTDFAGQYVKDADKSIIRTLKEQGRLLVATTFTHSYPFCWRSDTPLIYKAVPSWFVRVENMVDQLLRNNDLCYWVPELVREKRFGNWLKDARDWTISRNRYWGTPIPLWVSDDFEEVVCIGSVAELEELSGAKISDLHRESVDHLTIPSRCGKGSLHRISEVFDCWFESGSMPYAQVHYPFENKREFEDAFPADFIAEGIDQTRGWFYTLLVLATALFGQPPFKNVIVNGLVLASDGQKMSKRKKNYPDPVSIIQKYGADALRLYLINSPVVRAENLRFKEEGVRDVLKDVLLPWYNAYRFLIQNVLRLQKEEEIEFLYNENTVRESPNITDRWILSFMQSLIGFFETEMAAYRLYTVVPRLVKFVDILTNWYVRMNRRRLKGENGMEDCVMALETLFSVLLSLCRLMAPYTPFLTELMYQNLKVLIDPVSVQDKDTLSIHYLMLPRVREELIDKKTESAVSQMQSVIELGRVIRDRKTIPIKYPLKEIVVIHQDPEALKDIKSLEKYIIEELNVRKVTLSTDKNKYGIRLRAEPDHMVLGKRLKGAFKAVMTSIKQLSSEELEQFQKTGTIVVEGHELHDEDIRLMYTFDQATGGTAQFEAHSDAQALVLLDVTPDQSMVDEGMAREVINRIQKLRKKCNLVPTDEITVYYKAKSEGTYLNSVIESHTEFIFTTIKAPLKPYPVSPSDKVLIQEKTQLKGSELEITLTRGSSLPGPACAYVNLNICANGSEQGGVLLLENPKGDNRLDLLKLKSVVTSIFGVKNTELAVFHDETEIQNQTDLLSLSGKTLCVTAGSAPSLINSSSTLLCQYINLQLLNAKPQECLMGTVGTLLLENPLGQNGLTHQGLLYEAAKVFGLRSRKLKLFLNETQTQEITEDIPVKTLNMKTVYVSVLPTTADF
Method: as §1

B1: GST-LRS fragment 971-1176 (enzyme)
chain: VIASELGSMPELKKYMKKVMPFVAMIKENLEKMGPRILDLQLEFDEKAVLMENIVYLTNSLELEHIEVKFASEAEDKIREDCCPGKPLNVFRIEPGVSVSLVNPQPSNGHFSTKIEIRQGDNCDSIIRRLMKMNRGIKDLSKVKLMRFDDPLLGPRRVPVLGKEYTEKTPISEHAVFNVDLMSKKIHLTENGIRVDIGDTIIYLVH
notes: not shown: glutathione S-transferase (GST) fusion tag
binding result [1]: no binding

Binder: B4
binding result [5]: no binding
binding result [6]: no binding
binding result [7]: no binding

Other lines, results leading:

binding result [2]: binds
B2: endogenous RagD of 293T cells (enzyme, UniProt Q9NQL2 1-400, looked up)
chain: MSQVLGKPQPQDEDDAEEEEEEDELVGLADYGDGPDSSDADPDSGTEEGVLDFSDPFSTEVKPRILLMGLRRSGKSSIQKVVFHKMSPNETLFLESTNKICREDVSNSSFVNFQIWDFPGQIDFFDPTFDYEMIFRGTGALIFVIDSQDDYMEALARLHLTVTRAYKVNTDINFEVFIHKVDGLSDDHKIETQRDIHQRANDDLADAGLEKIHLSFYLTSIYDHSIFEAFSKVVQKLIPQLPTLENLLNIFISNSGIEKAFLFDVVSKIYIATDSTPVDMQTYELCCDMIDVVIDISCIYGLKEDGAGTPYDKESTAIIKLNNTTVLYLKEVTKFLALVCFVREESFERKGLIDYNFHCFRKAIHEVFEVRMKVVKSRKVQNRLQKKKRATPNGTPRVLL
notes: Endogenous protein in 293T cell lysates, detected with anti-RagD antibody

binding result [3]: binds
binding result [4]: binds
B3: GST-RagD (RagD-(1-400)) (enzyme, UniProt Q9NQL2 1-400, looked up)
chain: MSQVLGKPQPQDEDDAEEEEEEDELVGLADYGDGPDSSDADPDSGTEEGVLDFSDPFSTEVKPRILLMGLRRSGKSSIQKVVFHKMSPNETLFLESTNKICREDVSNSSFVNFQIWDFPGQIDFFDPTFDYEMIFRGTGALIFVIDSQDDYMEALARLHLTVTRAYKVNTDINFEVFIHKVDGLSDDHKIETQRDIHQRANDDLADAGLEKIHLSFYLTSIYDHSIFEAFSKVVQKLIPQLPTLENLLNIFISNSGIEKAFLFDVVSKIYIATDSTPVDMQTYELCCDMIDVVIDISCIYGLKEDGAGTPYDKESTAIIKLNNTTVLYLKEVTKFLALVCFVREESFERKGLIDYNFHCFRKAIHEVFEVRMKVVKSRKVQNRLQKKKRATPNGTPRVLL
notes: range 1-400; Expressed in E. coli BL21, purified on GSH agarose; also called peptide spanning aa 1-400 of RagD; RagD protein; not shown: glutathione S-transferase (GST) tag from pGEX4T3 vector (GE healthcare)
